Measured values taken from publication PMC13570301.

T1: CHIP G33S, recombinant, C-terminal His tag, Q9UNE7-1
T1 chain: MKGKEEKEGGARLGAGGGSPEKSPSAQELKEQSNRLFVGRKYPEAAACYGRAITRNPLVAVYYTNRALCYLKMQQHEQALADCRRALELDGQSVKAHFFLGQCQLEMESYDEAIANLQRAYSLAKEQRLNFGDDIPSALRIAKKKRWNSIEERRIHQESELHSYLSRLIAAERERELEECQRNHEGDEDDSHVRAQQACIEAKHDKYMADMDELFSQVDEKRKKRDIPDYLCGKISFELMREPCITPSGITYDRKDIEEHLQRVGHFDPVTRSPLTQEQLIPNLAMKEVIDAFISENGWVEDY

T2: CHIP-myc wild type (pcDNA3-CHIP-myc) (human), Q9UNE7
T2 chain: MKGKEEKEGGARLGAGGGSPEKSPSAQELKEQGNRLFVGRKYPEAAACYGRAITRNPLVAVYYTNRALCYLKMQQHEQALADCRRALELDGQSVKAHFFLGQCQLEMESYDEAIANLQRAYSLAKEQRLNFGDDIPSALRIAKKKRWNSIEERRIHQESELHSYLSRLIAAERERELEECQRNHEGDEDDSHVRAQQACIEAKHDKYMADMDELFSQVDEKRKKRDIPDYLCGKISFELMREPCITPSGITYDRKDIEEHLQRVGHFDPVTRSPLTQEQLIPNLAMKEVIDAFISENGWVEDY


Key:
[1] = biological target: T1, CHIP G33S, recombinant, C-terminal His …; test: mass photometry; conditions: chain shown with the change, self-association, fraction weighted by number of monomeric subunits, n = 3, read off a plot
[2] = biological target: T2, CHIP-myc wild type (pcDNA3-CHIP-myc) …; test: native gel or EMSA; Blue native PAGE and immunoblot of lysates (Native PAGE sample buffer, 1% digitonin) of transfected COS-7 cells kept at 37 °C or heat-shocked at 42 °C for 2 h; self-association; conditions: remark: other sources report otherwise

other: fraction of total CHIP in octamer (8n) ([1]; parent: est. 0.12) | other: fraction of total CHIP in hexamer (6n) ([1]; parent: est. 0.23) | other: fraction of total CHIP in dimer (2n) ([1]; parent: est. 0.32) | other: fraction of total CHIP in tetramer (4n) ([1]; parent: est. 0.33) | stoichiometry N [2] | Binder
0.13 | 0.2 | 0.38 | 0.3 | – | CHIP wild type, recombinant, C-terminal His tag (pET30-CHIP-His), Q9UNE7-1 G33S (protein) MKGKEEKEGGARLGAGGGSPEKSPSAQELKEQSNRLFVGRKYPEAAACYGRAITRNPLVAVYYTNRALCYLKMQQHEQALADCRRALELDGQSVKAHFFLGQCQLEMESYDEAIANLQRAYSLAKEQRLNFGDDIPSALRIAKKKRWNSIEERRIHQESELHSYLSRLIAAERERELEECQRNHEGDEDDSHVRAQQACIEAKHDKYMADMDELFSQVDEKRKKRDIPDYLCGKISFELMREPCITPSGITYDRKDIEEHLQRVGHFDPVTRSPLTQEQLIPNLAMKEVIDAFISENGWVEDY
– | – | – | – | 2 | CHIP-myc wild type (pcDNA3-CHIP-myc), Q9UNE7-1 1-303 (enzyme) MKGKEEKEGGARLGAGGGSPEKSPSAQELKEQGNRLFVGRKYPEAAACYGRAITRNPLVAVYYTNRALCYLKMQQHEQALADCRRALELDGQSVKAHFFLGQCQLEMESYDEAIANLQRAYSLAKEQRLNFGDDIPSALRIAKKKRWNSIEERRIHQESELHSYLSRLIAAERERELEECQRNHEGDEDDSHVRAQQACIEAKHDKYMADMDELFSQVDEKRKKRDIPDYLCGKISFELMREPCITPSGITYDRKDIEEHLQRVGHFDPVTRSPLTQEQLIPNLAMKEVIDAFISENGWVEDY
